± gives the uncertainty stated by the source.

The data set in a line: amyloid nucleation score (Sup35N fusion, yeast selection) (log enrichment); library NNK1; higher = more nucleation; inactive = no reads after selection. The method, boiled down: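 Yeast lacking psi expressed peptides of 20 random codons fused to Sup35N, received 100 μM copper sulfate for 24 hours, and were then grown for 7 days at 30°C on medium lacking adenine and uracil. Illumina sequencing of input and output plasmid inserts provided the reads. Nucleation scores are DiMSum log enrichments of output over input, centred on the mode of non-aggregating sequences. Any sequence with under 100 input reads was excluded.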

Turning to ISATCL, the amyloid nucleation score was found to be 0.858 ± 0.76.

The substance TSASVGLVMWTTWMRNQG returned an amyloid nucleation score of 3.75 ± 0.087.

In the case of VFCYQT, the amyloid nucleation score is 0.055 ± 1.1.

The substance KSLSRFRVTNSKEYMSAMGT displayed an amyloid nucleation score of -0.299 ± 0.26.

On to VFIDGLTSYTEIMRL, for which the amyloid nucleation score result is “inactive”.

SLSMDIAVRSTTNRHANNIL registered an amyloid nucleation score of -0.494 ± 1.1.

In turn, GPVRQHCYCDMTTVFRILGA came in with an amyloid nucleation score of -1.55 ± 1.4.

CCHYDHKSGVNSLRRKTNVW gave an amyloid nucleation score of 1.57 ± 0.43.

In the case of YVADGLKDKQRCSACFDASS, the amyloid nucleation score stood at 4.93 ± 0.063.

For the substance FVTNTWRVTVCPSQLFGILR, the amyloid nucleation score result is “inactive”.

For the substance SLILFV, the amyloid nucleation score was found to be 0.856 ± 0.45.

In the case of FLCMPL, the amyloid nucleation score came to 0.266 ± 0.41.

The substance PNYHGVRGM returned an amyloid nucleation score of -0.086 ± 1.2.

RQGPGRLHSTCKTL: the amyloid nucleation score is -0.257 ± 1.4.

Regarding NLRHALRMVTNGLSCTRKHG, the amyloid nucleation score was -0.278 ± 0.43.

The substance NRFNRYNVFPVYDQNLESPL displayed an amyloid nucleation score of 0.205 ± 0.38.

Take MVGCTYVCLADLFCKLLLMS: the amyloid nucleation score was -0.015 ± 0.41.

In turn, CYCWPTTKKIPFKSL gave an amyloid nucleation score of -0.739 ± 1.9.

With EQLACQNVVSGCQSA, the amyloid nucleation score stood at 0.277 ± 0.97.

The substance SNNELSTMTRL yielded an amyloid nucleation score of -1.01 ± 1.2.

In turn, PRYNCYQQHEVALDFSSLRC showed an amyloid nucleation score of -0.297 ± 0.54.

In the case of VFMMSDTC, the amyloid nucleation score result was “inactive”.

Substance WSYLQY returned an amyloid nucleation score of -0.364 ± 0.79.

HYTLCCKFFNQHVGHAMQNE came in with an amyloid nucleation score of 1.87 ± 0.51.

In turn, TFSHWPLWNVYRSFAFTCRP came in with an amyloid nucleation score of 0.871 ± 0.47.

Take VVYHAFDALLNLCRSSYRGH: the amyloid nucleation score was -0.811 ± 0.52.

IMHQYRRGYDRDLNWNRMFR yielded an amyloid nucleation score of 0.035 ± 0.72.

With RYVTDSGVGSIPRYLIKCSR, the amyloid nucleation score is -0.111 ± 0.42.

As for CRACRLRVIFNELMVGWVMF, the amyloid nucleation score entry was “inactive”.

Turning to VSHYGCFQTVCDLRVGGPPE, the amyloid nucleation score is -1.4 ± 2.4.

The substance LPCYSSLQSLGQRMQVKG displayed an amyloid nucleation score of 0.025 ± 0.31.

Substance SKCAVQCLVG returned an amyloid nucleation score of 0.986 ± 0.2.

The substance DPARGWPQNVNLFLLSNRR returned an amyloid nucleation score of 1.01 ± 0.63.

Turning to SRVSYPGFYYGCPVFQYYSA, the amyloid nucleation score worked out at 7.589 ± 0.053.

GMSPPSNSFFSFCFTGLVKF yielded an amyloid nucleation score of 0.319 ± 0.61.

Consider TRTNLVAPCIMEVLSNVHRY, for which the amyloid nucleation score entry is “inactive”.

With RNNEDGRLKDRRRGLSHGQG, the amyloid nucleation score was -0.531 ± 0.31.

In the case of LVIFKLTM, the amyloid nucleation score came out at 3.51 ± 0.066.

Take CLFNEALINANHLNNINWML: the amyloid nucleation score is -0.361 ± 0.66.

As to VRTSVCCTRALAMLRSLWVT, the amyloid nucleation score was -0.625 ± 0.73.

KADQCLSWDS returned an amyloid nucleation score of -0.717 ± 0.97.

YSLSPTKLGFSERLDSNEVV came in with an amyloid nucleation score of 0.225 ± 0.62.

Take PWNLIISSYASYYTCKVLVS: the amyloid nucleation score is -0.563 ± 1.1.

For VGVVGDYDLQIS, the amyloid nucleation score was -1.2 ± 2.4.

The substance LCDSPSKYNGPEYSMYVNLN had an amyloid nucleation score of 1.51 ± 0.7.

ARTDWFLNSRSSDYAIGFPY registered an amyloid nucleation score of -0.157 ± 0.79.

In turn, QSICFYSLKQCIRAKHR showed an amyloid nucleation score of 0.774 ± 0.37.

Take KIRRGCMLLGQHVWTT: the amyloid nucleation score came out at 0.207 ± 0.35.

In the case of LSRIDRFTVGENMVTATFLI, the amyloid nucleation score result is “inactive”.

FQSARR had an amyloid nucleation score of 0.575 ± 0.36.

The substance TVASRFEFYTKDWAYRNGRL yielded an amyloid nucleation score of 1.76 ± 0.33.

In turn, GGYVLPYSLFFGVPSIAFVG gave an amyloid nucleation score of 0.602 ± 0.7.

As for LGFPMRSVGQI, the amyloid nucleation score result was “inactive”.

NGMSSFRCLYMWARTFPVSN returned an amyloid nucleation score of -0.424 ± 0.99.

With NRTDKKDTLRWLFPT, the amyloid nucleation score amounted to 0.435 ± 0.81.

In turn, IKGFALVWTPFGLAFFYRG had an amyloid nucleation score of 0.113 ± 0.95.

FYGCFRVHCVISMLGWR gave an amyloid nucleation score of 0.109 ± 0.36.

The substance RANSYGGMSNVLW gave an amyloid nucleation score of 0.281 ± 0.28.

As for YKFYVTTLGFYDWCPFPVER, the amyloid nucleation score was 0.831 ± 0.42.

TCFMLKWIKQRLIDGSVKGR had an amyloid nucleation score of 0.512 ± 1.2.

HSYYGHPHTCFAMKEEVHVR had an amyloid nucleation score of 0.035 ± 0.77.

Consider ADTCPFCDHWTQSSNRWQEL, for which the amyloid nucleation score is 0.692 ± 0.41.

Turning to LTKRVGFDEMSLPHQDASSV, the amyloid nucleation score is -0.289 ± 0.36.

Regarding LRIFSKLFTSSLYNCFEGIP, the amyloid nucleation score came out at 0.143 ± 0.58.

Take RYYRVLLKFVLLSLVCTRYA: the amyloid nucleation score worked out at 0.578 ± 0.19.

On to KDRMITPKPTVVTHLVVSYG, for which the amyloid nucleation score was -0.23 ± 0.22.

For FFGCCSRGARIDHVSRNHLL, the amyloid nucleation score is 0.185 ± 0.52.

HSFSFCCSSYSCNLVGIELN yielded an amyloid nucleation score of 7.599 ± 0.043.

Consider MTVYLITNRHLR, for which the amyloid nucleation score turned out to be 0.905 ± 0.64.

NSITAQRVWVPPFVCLGDRY showed an amyloid nucleation score of 0.146 ± 0.44.

With YMLRYVAWCLGPAL, the amyloid nucleation score worked out at 0.459 ± 0.37.

RFSAK displayed an amyloid nucleation score of 0.585 ± 0.33.

In turn, TIFLQALGYSRWLLEISMDR gave an amyloid nucleation score of -1.06 ± 0.96.

For GLRVLFGLLGVCPCRDSQWG, the amyloid nucleation score entry was “inactive”.

Substance RYSFLANGASSFGCVVLFSL yielded an amyloid nucleation score of 0.503 ± 0.93.

CSLLSAPPVDSLWGTESRLI displayed an amyloid nucleation score of -0.804 ± 0.73.

SDRNERSVLSTCFGGCVPTG yielded an amyloid nucleation score of 1.14 ± 0.24.

On to ATSLSCKSKFPMTDVAHLHH, for which the amyloid nucleation score turned out to be 0.406 ± 0.2.

In turn, HFGDGILLI came in with an amyloid nucleation score of -1.21 ± 1.7.

Turning to NARPYRPSFILQSL, the amyloid nucleation score was -0.698 ± 0.54.

In turn, LFYNICFYA displayed an amyloid nucleation score of 6.738 ± 0.048.

Substance RGSMSEWNILYVYASIYKGD registered an amyloid nucleation score of 1.6 ± 0.42.

Consider WFWELGN, for which the amyloid nucleation score stood at 0.201 ± 0.28.

The substance VWELGPFCDLEVRYV registered an amyloid nucleation score of 0.531 ± 0.52.

On to WFSDMTAFLC, for which the amyloid nucleation score entry is “inactive”.

As to MSISRALLGSSFMFGLVISA, the amyloid nucleation score is -0.14 ± 0.83.

The substance YNTCECFSFLTCKWLNKMDG came in with an amyloid nucleation score of 2.79 ± 0.16.

In the case of IQPLIWANYFVIGARV, the amyloid nucleation score was 3.66 ± 0.1.

In turn, LDNRYFGHIMSLELMFIRPS had an amyloid nucleation score of 1.19 ± 0.58.

On to STFFSY, for which the amyloid nucleation score result is “inactive”.

In turn, NGSSLVANELRVWIVSSFML had an amyloid nucleation score of -0.59 ± 0.64.

NPVGSSRVVYRAPNHVIV displayed an amyloid nucleation score of 1.18 ± 0.58.

As for GSTQPCRNTFLLFLPALTIP, the amyloid nucleation score entry is “inactive”.

The substance IAAVQ returned an amyloid nucleation score of 0.162 ± 0.89.

TENVLLTYVFYAKSRLGSVV gave an amyloid nucleation score of 0.921 ± 0.56.

Substance HLPTKFLGVPNKLAYSTAPV came in with an amyloid nucleation score of -0.401 ± 0.42.

The substance KGMYISWIVAVCS yielded an amyloid nucleation score of 0.411 ± 0.3.

QFDVVMMWQTE showed an amyloid nucleation score of -0.189 ± 0.3.

As for FRLARGVVWCPGGISC, the amyloid nucleation score was -0.536 ± 0.42.

NGLSMSLSCRYTLWVIFFSF registered an amyloid nucleation score of -0.157 ± 1.2.

Regarding GWKVCN, the amyloid nucleation score amounted to 0.362 ± 1.4.

AMVGLMMELAHRKLNR: the amyloid nucleation score was determined as 0.523 ± 0.45.

RHCLKVFSEDTYESVKVVLR returned an amyloid nucleation score of 0.428 ± 0.75.

Regarding QSNLYLLALELAYECYSGCH, the amyloid nucleation score was 0.049 ± 0.72.

As to GFVGYNCLCFCKSVA, the amyloid nucleation score was -1.05 ± 0.84.

For WIPGRLLSAVKVGSNSLVF, the amyloid nucleation score is -0.637 ± 0.62.

VCNQWGDHA returned an amyloid nucleation score of -1.08 ± 1.7.

In the case of RNASIRVTSQVCYVNS, the amyloid nucleation score was determined as 1.3 ± 0.27.

With PCSSVLLEHWSRYASRCEMV, the amyloid nucleation score is 1.28 ± 0.58.

IITCRSASETMWFSCFDGLA registered an amyloid nucleation score of 2.95 ± 0.17.

As for FTNKFCFL, the amyloid nucleation score came out at 0.069 ± 0.35.

Substance FGRGHGLTGR yielded an amyloid nucleation score of 0.25 ± 0.63.

On to LYITVIVHNWVLGWKRVLLE, for which the amyloid nucleation score was 1.64 ± 0.71.

Turning to RGLGWHHRLSCYRSAGFARA, the amyloid nucleation score is -0.719 ± 2.1.

MIKYYYGSGTLS had an amyloid nucleation score of -0.429 ± 0.34.

FVPIF gave an amyloid nucleation score of -0.208 ± 0.72.

For CILGWKYLDVVYDQRRLRCG, the amyloid nucleation score is 0.939 ± 0.46.

TYYKQYVLMYRALNFAGSWS had an amyloid nucleation score of 1.21 ± 0.79.

For the substance LGEMGRVSYLYVCLHWALLS, the amyloid nucleation score came out at 0.119 ± 0.44.

With GLGGYT, the amyloid nucleation score is -0.155 ± 0.49.

In turn, FFGHAEDFLYMIRVHAGNNL came in with an amyloid nucleation score of -0.379 ± 0.41.

In the case of LLASAIHLNRTADAMKEYYP, the amyloid nucleation score was -0.036 ± 0.39.

VPANEFCMADIMHRANRMLG yielded an amyloid nucleation score of 0.758 ± 0.71.

Turning to NTTYQTYR, the amyloid nucleation score worked out at 4.31 ± 0.074.

As to TYFSISQLLGFFQSVGPYVF, the amyloid nucleation score amounted to 0.108 ± 0.56.

For RGNDLFTQVASMKSV, the amyloid nucleation score was -0.207 ± 0.55.

In turn, ASNYGQWSCHPGRSLFVQFF gave an amyloid nucleation score of 4.56 ± 0.11.

For the substance VYVSFTRNCVGCIGLD, the amyloid nucleation score was found to be 4.62 ± 0.061.

For the substance EKLSRAVYPRASIRVVCMLF, the amyloid nucleation score was -0.204 ± 0.34.

For YIFWLYWRQSSSNCLGDVKW, the amyloid nucleation score was -0.46 ± 0.46.

Take SCGCYKSSLVNLL: the amyloid nucleation score is 0.328 ± 0.9.

The substance IVDSVRGKGVY gave an amyloid nucleation score of 1.14 ± 0.79.

In the case of SMHSLGSHEGSRRIPGLSFD, the amyloid nucleation score is -0.007 ± 1.2.

Take FPASNAQNLRLFQVGYGRPQ: the amyloid nucleation score was 0.185 ± 1.1.

As to VVNLWTQADIMRSSCRLKHV, the amyloid nucleation score is 0.074 ± 0.19.

With FDVYFSVPFFTLLYNDPKWF, the amyloid nucleation score is 2.35 ± 0.12.

In the case of VGIWLGTGTWGCKGL, the amyloid nucleation score turned out to be 0.485 ± 0.66.

In turn, LYIRSIACGSSLLFLAVLNC gave an amyloid nucleation score of -0.856 ± 1.1.

In turn, WVAINPCV displayed an amyloid nucleation score of 0.464 ± 0.88.

In turn, TSGSRVRRRWGMLVCRNRSR yielded an amyloid nucleation score of -1.25 ± 2.4.

For the origin of these results see the supplement of paper PMC12042874.
